In patent publication US20230242675A1 (SHANGHAI EPIMAB BIOTHERAPEUTICS, published 2023):

Legend:
[1] = target: T1, human PD-L1/His fusion protein (human, UniProt Q9NZQ7 19-239); assay: RBA ELISA: coated PD-L1/His, competitor biotinylated PD-1/Fc
Description: Anti-PD-L1 scFv supernatants were tested for ability to block PD-L1/PD-1 interaction. […] The mixtures were added to individual wells and incubated at room temperature for 30 minutes. […] Bound signal was developed by Streptavidin-HRP (Cat. No. S2468, Sigma) and read by a plate reader at a wavelength of 450 nm. A low signal, as with the positive control, indicated blocking activity.

[2] = target: T2, cynomolgus (cyno) PD-L1/His fusion protein (cynomolgus, UniProt G7PSE7 19-239); assay: ELISA, scFv supernatant on cynomolgus PD-L1
T2 construct: also called cynomolgus PD-L1; not shown: His tag

[3] = target: T1, human PD-L1/His fusion protein; assay: BLI Octet RED96, single concentration of human PD-L1-his
Description: Briefly, antibodies were characterized for affinities and binding kinetics by biolayer interferometry (BLI) using an Octet® RED96 sensor device (Pall ForteBio LLC). Antibodies were captured by anti-hIgG Fc Capture (AHC) Biosensors (Pall) at a concentration of 100 nM for 30 seconds. Sensors were then dipped into running buffer (1×, pH7.2, PBS, 0.05% Tween 20, 0.1% BSA) for 60 seconds to check baseline. Binding was measured by dipping sensors into a single concentration of recombinant human PD-L1-his protein. Dissociation was followed by dipping sensors into running buffer for 1200 seconds. The association and dissociation curves were fitted to a 1:1 Langmuir binding model using the manufacturer's data analysis software (ForteBio Data Analysis software, Pall ForteBio LLC).

[4] = target: T3, human PD-L1 on the cell surface (CHO-K1 cells stably expressing human PD-L1) (human, UniProt Q9NZQ7 19-290); assay: FACS, scFv-phage on CHO-K1/PD-L1 cells
T3 construct: whole, on cells; Also used here for PD-L1 on the monocyte-derived dendritic cells of the MLR assay (functional rows); also called CHO-K1/PD-L1; CHOK1-PD-L1
Description: After characterization of ability to bind PD-L1 in ELISA and RBA ELISA, the PD-L1-binding positive scFv clones were sequenced. […] Briefly, 2×10⁵ cells of the CHO-K1/PD-L1 cell line stably expressing huPD-L1 described above were added to round-bottom wells of a 96-well plate (Cat. No. 3799, Corning). A phage supernatant from an overnight culture that had been rescued by hyper phage was added. The mixture of CHO-K1/PD-L1 cells and phage supernatant in each well was diluted with 50 μl of FACS buffer (PBS with 2% FBS). The anti-PD-L1 scFv-phages were detected with murine anti-M13 phage antibody (Cat. No. 11973-MM05, Sino biological) and then with Donkey anti-Mouse IgG (H+L) Highly Cross-Adsorbed, Alexa Fluor® 488 conjugate, secondary antibody (Cat. No. A21202, Invitrogen). Cell fluorescence was monitored using a flow cytometer.

human TGFβ2 = target: T4, human TGFβ2 (human, UniProt P61812 303-414); assay: ELISA: human TGFβ2 coated (1 µg/ml), binding protein titrated 0.0006-10 nM, anti-human IgG Fc-HRP, OD450
T4 construct: also called TGFβ isoform 2; TGFβ2 (Cat. No. CJ79, Novoprotein)
T4 sequence (looked up): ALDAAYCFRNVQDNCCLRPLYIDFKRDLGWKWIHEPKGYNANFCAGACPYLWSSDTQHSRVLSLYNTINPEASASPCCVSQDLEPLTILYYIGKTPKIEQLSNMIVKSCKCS
Description: (§1) Accordingly, each of the wells of the ELISA microplates provided a reaction mixture to test the ability of a particular binding protein at a particular concentration to bind to a particular TGFβ isoform. […] Plates were washed three times in washing buffer (PBS containing 0.05% Tween 20) and blocked for 1 hour at 37° C. with 200 μl per well of blocking buffer (1% BSA in PBS containing 0.05% Tween 20). […] The wells containing the various binding mixtures were incubated at 37° C. for 1 hour to permit binding to TGFβ protein on the surface of the wells. Thereafter, the wells were washed four times with washing buffer, and anti-human IgG Fc HRP (Sigma, Catalog No. A0170) was diluted 1:10000 and added to the wells at 100 μl per well to detect binding protein that was bound to TGFβ protein present on the surface of a well. The plates were incubated for 1 hour at 37° C. and washed four times with washing buffer. 100 μl of tetramethylbenzidine (TMB) chromogenic solution were added per well. Following color development, the reaction was stopped with 1 N HCl, and absorbance at 450 nm (OD450) was measured on a VARIOSKAN™ LUX microplate reader (Thermo Scientific™).

human TGFβ1 = target: T5, human TGFβ1 (human, UniProt P01137 279-390); assay: ELISA: human TGFβ1 coated (1 µg/ml), binding protein titrated 0.0006-10 nM, anti-human IgG Fc-HRP, OD450
T5 construct: also called TGFβ isoform 1; TGFβ1 (Cat. No. CA59, Novoprotein)
Description: as §1

[5] = target: T1, human PD-L1/His fusion protein; assay: BLI Octet Red, binding protein on AHC sensor, PD-L1-his in solution
Description: Sensors were then dipped into running buffer (1×pH 7.2 PBS, 0.05% Tween 20, 0.1% BSA) for 60 seconds to check baseline. Binding was measured by dipping sensors into a series diluted concentration of recombinant human PD-L1-his protein. Dissociation was followed by dipping sensors into running buffer for 1200 seconds. The association and dissociation curves were fitted to a 1:1 Langmuir binding model using ForteBio Data Analysis software (Pall). The equilibrium dissociation constant KD (M) of the reaction between antibodies and related target proteins was then calculated from the kinetic rate constants using the formula KD=koff/kₒₙ.

[6] = target: T6, biotinylated human PD-L1 protein (ACROBiosystems, H82E5) (human, UniProt Q9NZQ7 19-238, biotinylated (site not stated)); assay: dual-binding ELISA: human TGFβ3 coated, 5 nM binding protein bound to it, biotinylated human PD-L1 titrated 0.0006-10 nM (axis labelled Ab (nM)), streptavidin-HRP, OD450; the EC50 is of the titrated PD-L1
T6 construct: also called biotinylated PD-L1
Description: (§2) Briefly, ELISA plates were incubated overnight at 4° C. with 100 μl of a human TGFβ isoform diluted in PBS buffer, pH 7.4, at 1 μg/ml, to allow the human TGFβ isoform to coat (adsorb to) the surface of the wells. Plates were washed three times in washing buffer (PBS containing 0.05% Tween 20) and blocked for 1 hour at 37° C. with 200 μl per well blocking buffer (1% BSA in PBS containing 0.05% Tween 20). […] The wells were washed four times with washing buffer, and Streptavidin-HRP (Merck, RABHRP3) was diluted 1:10000 and added to the wells at 100 μl per well. The plates were incubated for 1 hour at 37° C. and washed four times in washing buffer. 100 μl of tetramethylbenzidine (TMB) chromogenic solution were added per well.

[7] = target: T6, biotinylated human PD-L1 protein …; assay: dual-binding ELISA: human TGFβ2 coated, 5 nM binding protein bound to it, biotinylated human PD-L1 titrated 0.0006-10 nM (axis labelled Ab (nM)), streptavidin-HRP, OD450; the EC50 is of the titrated PD-L1
Description: as §2

[8] = target: human PD-L1/Fc Fusion Protein (human); assay: ELISA, scFv supernatant on coated human PD-L1/Fc
Description: Two hundred (200) single bacterial clones from each group of the third panning round were isolated and grown in culture to express a single scFv monoclonal antibodies (mAbs). The scFv mAbs were expressed in the bacterial culture supernatants, which were primarily screened by ELISA. […] 20 ng of human PD-L1/Fc protein in 100 μL PBS, pH 7.4, were directly coated in each well of a 96-well plate. An HRP-linked anti-c-myc antibody (Cat. No. Ab1261, Abcam) and TMB reagent were used to detect and develop the ELISA signal, which was read using a plate reader (SpectraMax® Plus 384; Molecular Devices) at a wavelength of 450 nm.

T1 sequence (Q9NZQ7 19-239 limits assumed): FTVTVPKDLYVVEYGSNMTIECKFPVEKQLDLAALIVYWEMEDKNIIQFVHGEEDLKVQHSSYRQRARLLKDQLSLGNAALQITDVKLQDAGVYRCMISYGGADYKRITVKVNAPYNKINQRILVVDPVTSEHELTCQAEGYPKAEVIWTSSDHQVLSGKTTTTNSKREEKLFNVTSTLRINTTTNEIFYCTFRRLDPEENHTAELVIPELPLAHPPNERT
T6 sequence (Q9NZQ7 19-238 limits assumed): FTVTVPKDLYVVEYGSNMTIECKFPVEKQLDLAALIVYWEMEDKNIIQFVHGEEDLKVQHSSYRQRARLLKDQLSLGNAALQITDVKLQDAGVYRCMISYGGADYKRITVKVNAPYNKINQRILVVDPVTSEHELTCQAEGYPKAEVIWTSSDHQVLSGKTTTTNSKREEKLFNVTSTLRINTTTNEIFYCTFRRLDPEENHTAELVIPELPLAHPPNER
T3 sequence (Q9NZQ7 19-290): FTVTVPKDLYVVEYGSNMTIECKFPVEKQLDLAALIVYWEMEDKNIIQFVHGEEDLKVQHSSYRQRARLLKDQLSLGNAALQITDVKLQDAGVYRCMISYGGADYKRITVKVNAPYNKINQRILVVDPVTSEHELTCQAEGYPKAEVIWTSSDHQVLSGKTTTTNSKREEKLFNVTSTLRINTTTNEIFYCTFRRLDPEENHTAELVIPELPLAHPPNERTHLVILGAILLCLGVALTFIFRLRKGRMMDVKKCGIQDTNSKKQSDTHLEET
T2 sequence (G7PSE7 entry or part of it): as the sequence (Q9NZQ7 19-239 limits assumed) above, with A33T, A34S, S62N, R68Q, Q82R, F173L, T185A, T192I, H215L counted along it
T5 sequence (P01137 279-390 limits assumed): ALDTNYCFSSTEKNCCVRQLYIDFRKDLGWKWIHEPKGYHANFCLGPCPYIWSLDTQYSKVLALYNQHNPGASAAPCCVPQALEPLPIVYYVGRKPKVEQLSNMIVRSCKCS
human PD-L1/Fc Fusion Protein (human), sequence (chain, as listed by the source limits assumed): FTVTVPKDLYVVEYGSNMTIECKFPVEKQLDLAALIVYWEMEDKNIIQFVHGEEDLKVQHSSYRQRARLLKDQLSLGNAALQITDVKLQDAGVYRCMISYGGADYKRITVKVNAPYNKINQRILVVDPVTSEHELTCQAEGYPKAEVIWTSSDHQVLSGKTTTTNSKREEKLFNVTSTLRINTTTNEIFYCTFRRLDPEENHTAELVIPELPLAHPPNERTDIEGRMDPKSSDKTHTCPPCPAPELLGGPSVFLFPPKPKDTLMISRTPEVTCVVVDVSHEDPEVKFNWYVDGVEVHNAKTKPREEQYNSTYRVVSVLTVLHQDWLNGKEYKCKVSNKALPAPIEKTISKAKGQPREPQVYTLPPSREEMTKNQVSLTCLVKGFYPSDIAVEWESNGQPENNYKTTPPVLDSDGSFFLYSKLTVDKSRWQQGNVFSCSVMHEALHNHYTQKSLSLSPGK

B1: EM0005-mAb90 scFv (scFv)
scFv: QVQLKQSGAELVRPGSSVKMSCKTSGYTFTSHSINWVKQRPGQGLEWIGYMYIGNGYTEYNEKFKGKATLTSDTSSTTAYMQLSSLTSEDSAIYFCAKITPVVAPYVMDYWGQGTSVTVSSGGGGSGGGGSGGGGSDIVMTQTHKFMSTSVGDRVSITCKASQDVGTAVAWYQQKPGQSPKLLIYWASTRHTGVPDRFTGSGSGTDFTLTISNVQSEDLADYFCQQYSSYPYTFGGGTKLELK
notes: Tested as bacterial culture supernatant and as scFv-displaying phage in FACS; tags of the pCAN phagemid not spelled out for library clones; also called 6C11
RBA (% inhibition) [1]: 100%
EC50 [2]: 4 nM
koff [3]: 0.000232 s⁻¹
Binding to CHOK1-PD-L1 (X Geo Mean) [4]: 36.6

B2: FIT1012-3a TGFβ/PD-L1 bispecific binding protein (bispecific antibody, human IgG1, kappa)
heavy: not shown
chain: TIPPHVQKSVNNDMIVTDNNGAVKFPQLCKFCDVRFSTCDNQKSCMSNCSITSICEKPQEVCVAVWRKNDENITLETVCHDPKLPYHDFILEDAASPKCIMKEKKKPGETFFMCSCSSDECNDNIIFSEEYNTSNPDASTKGPSVFPLAPSSKSTSGGTAALGCLVKDYFPEPVTVSWNSGALTSGVHTFPAVLQSSGLYSLSSVVTVPSSSLGTQTYICNVNHKPSNTKVDKKVEPKSC
light: DIQMTQSPSSVSASVGDRVTITCKASQDVGTAVAWYQQKPGKAPKLLIYWASTRHTGVPDRFTGSGSGTDFTLTISSLQPEDFATYYCQQYSSYPYTFGGGTKVEIKRTVAAPSVFIFPPSDEQLKSGTASVVCLLNNFYPREAKVQWKVDNALQSGNSQESVTEQDSKDSTYSLSSTLTLSKADYEKHKVYACEVTHQGLSSPVTKSFNRGEC
notes: Six-chain protein; anti-PD-L1 moiety from HuEM0005-86-6 with G55A; four TGFβR2(ECD) traps
EC50 (human TGFβ2): 0.525 nM
EC50 (read off the curve) (human TGFβ1): ~0.4 nM
Kd [5]: 0.609 nM
koff [5]: 0.000344 s⁻¹
kon [5]: 564000 M⁻¹ s⁻¹
EC50 [6]: 0.205 nM
EC50 [7]: 0.205 nM

B3: FIT1012-4a TGFβ/PD-L1 bispecific binding protein (bispecific antibody, human IgG1, kappa)
heavy: not shown
chain: B2 chain
light: not shown
notes: Six-chain protein; anti-PD-L1 moiety from HuEM0005-87-1; four TGFβR2(ECD) traps
EC50 (human TGFβ2): 0.288 nM
EC50 (human TGFβ1): 0.29 nM
Kd [5]: 1.3 nM
EC50 [6]: 0.114 nM
EC50 [7]: 0.114 nM

B4: EM0005-mAb87 scFv (scFv)
scFv: EVQLQQSGPELVKPGASVKISCKASGYSFTDYYINWVKQSPEKSLEWIGETIPNTGGTTYNQKFKAKATLTVDKSSSTAYMQLKSLTSEDSAVYYCARYQSGSPFAYWGQGTPVTVSSGGGGSGGGGSGGGGSDIVMTQSQKFMSTTVGDRVSITCKASQNVGTAVAWYQQKPGQSPKLLIYSASNRYTGVPDRFTGSGSGTDFTLTISNMQSEDLADYFCQQHYSTPYTFGGGTKLEIK
notes: Tested as bacterial culture supernatant and as scFv-displaying phage in FACS; tags of the pCAN phagemid not spelled out for library clones; also called 4E8
RBA (% inhibition) [1]: 99.8%
EC50 [2]: 4 nM
koff [3]: 0.000206 s⁻¹
Binding to CHOK1-PD-L1 (X Geo Mean) [4]: 49.7
EC50 [8]: 3.02 nM

B5: EM0005-mAb86 scFv (scFv)
scFv: QVQLQQSGAELVRPGSSVKMSCKTSGYTFTTYGINWVKQRPGQGLEWIGYIYIGNGYTEYNEKFKGKATLTSDPSSRTAYMQLSSLTSEDSAIYFCARDLMVIAPKTMDYWGQGTSVTVSSGGGGSGGGGSGGGGSDIQMNQSHKFMSTSVGDRVSITCKASQDVGTAVAWYQQKPGQSPKLLIYWASTRHTGVPDRFTGGGSGTDFTLTISNVQSEDLADYFCQQYSSYPYTFGGGTKLEMK
notes: Tested as bacterial culture supernatant (detected with anti-c-myc antibody; tags of the pCAN phagemid not spelled out for library clones) and as scFv-displaying phage in FACS; also called 3A3
RBA (% inhibition) [1]: 100%
EC50 [2]: 4 nM
koff [3]: 0.000197 s⁻¹
Binding to CHOK1-PD-L1 (X Geo Mean) [4]: 27.6
EC50 [8]: 1.19 nM
